According to IntAct's records for PubMed 15811349:

Experiments:
pick1_mouse Pick1 = pick1_mouse Pick1 (UniProt Q62083)
afad_human AFDN = afad_human AFDN (UniProt P55196)
Chain of UniProt P55196 (P55196 whole entry): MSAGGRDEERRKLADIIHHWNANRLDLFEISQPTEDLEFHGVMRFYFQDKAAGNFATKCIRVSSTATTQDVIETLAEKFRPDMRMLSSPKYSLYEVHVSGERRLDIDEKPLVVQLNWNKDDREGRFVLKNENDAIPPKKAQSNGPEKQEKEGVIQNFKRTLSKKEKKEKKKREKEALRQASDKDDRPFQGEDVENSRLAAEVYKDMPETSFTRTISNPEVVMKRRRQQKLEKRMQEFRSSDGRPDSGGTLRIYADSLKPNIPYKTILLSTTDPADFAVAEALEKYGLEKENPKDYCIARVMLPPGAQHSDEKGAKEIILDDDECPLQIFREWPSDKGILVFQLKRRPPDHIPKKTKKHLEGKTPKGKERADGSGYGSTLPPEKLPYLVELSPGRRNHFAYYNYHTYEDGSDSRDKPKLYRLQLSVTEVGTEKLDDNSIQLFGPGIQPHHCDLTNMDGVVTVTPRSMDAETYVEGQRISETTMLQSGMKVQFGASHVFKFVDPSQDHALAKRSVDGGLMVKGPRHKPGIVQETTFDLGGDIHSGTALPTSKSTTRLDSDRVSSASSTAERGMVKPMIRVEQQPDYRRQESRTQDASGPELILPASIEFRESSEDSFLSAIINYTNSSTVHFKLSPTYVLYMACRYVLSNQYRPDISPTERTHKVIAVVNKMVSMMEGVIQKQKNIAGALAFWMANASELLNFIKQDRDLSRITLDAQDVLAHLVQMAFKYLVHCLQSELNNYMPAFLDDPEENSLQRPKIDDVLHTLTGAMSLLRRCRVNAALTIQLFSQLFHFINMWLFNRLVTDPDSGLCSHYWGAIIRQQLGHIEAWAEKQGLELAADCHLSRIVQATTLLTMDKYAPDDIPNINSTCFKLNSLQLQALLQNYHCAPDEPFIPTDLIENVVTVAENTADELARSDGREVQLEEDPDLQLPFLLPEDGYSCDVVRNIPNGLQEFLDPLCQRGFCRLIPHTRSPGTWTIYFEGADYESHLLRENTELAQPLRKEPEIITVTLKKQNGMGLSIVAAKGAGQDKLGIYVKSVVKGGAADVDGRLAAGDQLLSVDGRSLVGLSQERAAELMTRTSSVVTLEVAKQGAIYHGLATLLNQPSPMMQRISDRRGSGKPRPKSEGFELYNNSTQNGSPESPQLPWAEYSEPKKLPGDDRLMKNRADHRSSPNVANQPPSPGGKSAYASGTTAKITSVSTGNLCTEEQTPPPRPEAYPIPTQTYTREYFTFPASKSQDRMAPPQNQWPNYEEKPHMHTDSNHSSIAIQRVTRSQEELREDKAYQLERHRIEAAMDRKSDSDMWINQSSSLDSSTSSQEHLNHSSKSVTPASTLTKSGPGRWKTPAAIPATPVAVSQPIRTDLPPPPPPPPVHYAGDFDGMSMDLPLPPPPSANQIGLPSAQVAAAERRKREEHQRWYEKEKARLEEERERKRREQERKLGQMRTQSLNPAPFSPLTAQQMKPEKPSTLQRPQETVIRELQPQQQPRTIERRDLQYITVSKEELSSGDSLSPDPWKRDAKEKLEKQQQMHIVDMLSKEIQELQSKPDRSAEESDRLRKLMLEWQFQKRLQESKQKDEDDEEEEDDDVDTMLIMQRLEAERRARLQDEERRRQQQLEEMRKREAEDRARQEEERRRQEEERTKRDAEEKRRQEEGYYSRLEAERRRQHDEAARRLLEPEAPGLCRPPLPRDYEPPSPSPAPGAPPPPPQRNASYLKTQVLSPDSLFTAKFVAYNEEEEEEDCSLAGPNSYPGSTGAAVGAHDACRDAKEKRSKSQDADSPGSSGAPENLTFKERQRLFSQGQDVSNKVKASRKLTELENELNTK

Chain of UniProt Q62083 (Q62083 whole entry): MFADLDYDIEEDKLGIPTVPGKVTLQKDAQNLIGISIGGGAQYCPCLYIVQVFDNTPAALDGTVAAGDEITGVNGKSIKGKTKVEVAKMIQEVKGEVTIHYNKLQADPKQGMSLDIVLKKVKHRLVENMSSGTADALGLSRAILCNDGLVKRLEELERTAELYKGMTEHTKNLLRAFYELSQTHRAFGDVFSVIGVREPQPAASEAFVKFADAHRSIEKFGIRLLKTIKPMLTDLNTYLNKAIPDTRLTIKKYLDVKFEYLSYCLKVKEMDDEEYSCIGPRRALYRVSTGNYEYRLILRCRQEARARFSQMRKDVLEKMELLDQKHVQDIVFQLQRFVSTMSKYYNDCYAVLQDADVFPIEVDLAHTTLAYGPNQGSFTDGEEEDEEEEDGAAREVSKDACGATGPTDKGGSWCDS

Row | Substance | effect of a mutation on the interaction (pick1_mouse Pick1) | effect of a mutation on the interaction (afad_human AFDN)
1 | Nectin-3 (Homo sapiens) (from UniProt Q9NQS3) E546G | disrupting interaction | 
2 | Nectin-3 (Homo sapiens) (from UniProt Q9NQS3) V549A | decreasing interaction | disrupting interaction
3 | Nectin-3 (Homo sapiens) (from UniProt Q9NQS3) Y548A |  | disrupting interaction
